The results in this text go back to patent publication US20250011363A1, “OPTIMIZED SHORTENED PEPTIDE THAT BINDS TO ACETYLCHOLINE RECEPTOR, AND USE THEREOF” (SKINMED CO., LTD., priority 2021, published 2025).

This assay addresses acetylcholine receptor. As to the kind of experiment: SPR, receptor immobilized, peptide 10 uM.

Turning to KNWVR [5mer-796], the Binding affinity (RU) amounted to 17 RU.

Molecule KTEHR [5mer-1091] showed a Binding affinity (RU) of 29 RU.

REEDK [5mer-1093] came in with a Binding affinity (RU) of 32 RU.

KADMK [5mer-1077] gave a Binding affinity (RU) of 12 RU.

In the case of RACFR [5mer-1082], the Binding affinity (RU) was 11 RU.

In turn, KAEKR [5mer-1095] registered a Binding affinity (RU) of 27 RU.

With KANAR [5mer-782], the Binding affinity (RU) was found to be 32 RU.

Molecule KRQVQR [6mer-1-140] yielded a Binding affinity (RU) of 148 RU.

Molecule RFHGR [5mer-1098] came in with a Binding affinity (RU) of 31 RU.

Molecule KAKKK [5mer-1088] showed a Binding affinity (RU) of 16 RU.

In turn, RFNKK [5mer-786] came in with a Binding affinity (RU) of 29 RU.

KKDHK [5mer-778] displayed a Binding affinity (RU) of 24 RU.

As for KISGK [5mer-1090], the Binding affinity (RU) amounted to 31 RU.

For the molecule RTTER [5mer-1085], the Binding affinity (RU) is 14 RU.

The molecule RTKKR [5mer-795] displayed a Binding affinity (RU) of 20 RU.

RPNVR [5mer-1081] displayed a Binding affinity (RU) of 13 RU.

Molecule KYHGK [5mer-788] gave a Binding affinity (RU) of 16 RU.

In turn, RCDFR [5mer-776] gave a Binding affinity (RU) of 17 RU.

On to KYPPR [5mer-779], for which the Binding affinity (RU) came to 21 RU.

The molecule KPMVK [5mer-1092] had a Binding affinity (RU) of 12 RU.

The molecule KDNIR [5mer-787] had a Binding affinity (RU) of 17 RU.

For KRRFLR [6mer-1-139], the Binding affinity (RU) amounted to 122 RU.

In the case of KFEKK [5mer-1076], the Binding affinity (RU) was 21 RU.

Consider RYTHK [5mer-1080], for which the Binding affinity (RU) worked out at 25 RU.

For the molecule RETMK [5mer-798], the Binding affinity (RU) is 13 RU.

For KYTGR [5mer-1079], the Binding affinity (RU) is 31 RU.

RACEK [5mer-784] showed a Binding affinity (RU) of 21 RU.

For KCKVR [5mer-783], the Binding affinity (RU) came to 29 RU.

The molecule KFSVR [5mer-1083] registered a Binding affinity (RU) of 31 RU.

KKPHR [5mer-793] had a Binding affinity (RU) of 19 RU.

For the molecule KPDIR [5mer-1097], the Binding affinity (RU) came to 28 RU.

Regarding RYNWK [5mer-777], the Binding affinity (RU) was found to be 28 RU.

Molecule RDSHK [5mer-780] yielded a Binding affinity (RU) of 27 RU.

Regarding RPTDK [5mer-1096], the Binding affinity (RU) is 15 RU.

Consider KTHHR [5mer-1089], for which the Binding affinity (RU) was 29 RU.

With RMEKK [5mer-792], the Binding affinity (RU) worked out at 31 RU.

KEAPK [5mer-794] gave a Binding affinity (RU) of 20 RU.

The molecule KFWIR [5mer-789] gave a Binding affinity (RU) of 12 RU.

Molecule RTHDR [5mer-1084] showed a Binding affinity (RU) of 21 RU.

In turn, RKHIK [5mer-1075] returned a Binding affinity (RU) of 26 RU.

RIDPR [5mer-781]: the Binding affinity (RU) is 28 RU.

With RIWDR [5mer-1086], the Binding affinity (RU) was found to be 19 RU.

Regarding RYSMK [5mer-1094], the Binding affinity (RU) stood at 15 RU.

KEAWK [5mer-1078] came in with a Binding affinity (RU) of 19 RU.

In the case of KTKMR [5mer-791], the Binding affinity (RU) is 26 RU.

The molecule KKKKR [5mer-1087] returned a Binding affinity (RU) of 11 RU.

In turn, RRWLYK [6mer-1-136] gave a Binding affinity (RU) of 148 RU.

RRLFRR [6mer-1-137] yielded a Binding affinity (RU) of 121 RU.

Regarding KETHK [5mer-797], the Binding affinity (RU) is 15 RU.

With REAGK [5mer-790], the Binding affinity (RU) is 33 RU.

As to KPTIR [5mer-785], the Binding affinity (RU) amounted to 31 RU.

RKVVTR [6mer-1-138]: the Binding affinity (RU) was found to be 124 RU.
